Consider one molecule from publication PMC5020537, “A lack of peptide binding and decreased thermostability suggests that the CASKIN2 scaffolding protein SH3 domain may be vestigial” (BMC Structural Biology, 2016).

Several values for one entry are separate records, joined by “and”; a condition that tells them apart may be missing. Equal values may be shown once.

Assay [1] concerns the target T1, human CASKIN2 SH3 domain (aa. 284-348), wild type (human, UniProt Q8WXE0 284-348).
T1 construct: CASKIN2, human, SH3 domain, residues 284-348, UniProt Q8WXE0; Cloned into BamHI/XhoI of pGEX4T2; Isotopically labelled (15N and/or 13C) for NMR; also called wild type CASKIN2 SH3 domain; WT
The assay can be described thus: other fluorescence titration; peptide titrated into 1 μM SH3 domain; 10 mM Tris-HCl, pH 7.5, 150 mM NaCl, 0.05 % sodium azide; intrinsic tryptophan fluorescence, excitation 280 nm, emission 340 nm; fitted to a 1:1 protein to peptide complex. The following applies: both partners purified.

Assay [2] deals with T2, CASKIN2 SH3 domain SH3-6x mutant (K290Y, H296E, A300E, R319W, Y336L, I341F) (human, UniProt Q8WXE0 284-348, K290Y | H296E | A300E | R319W | Y336L | I341F).
T2 construct: Made by Quikchange from the wild type construct; PDB 2KE9 is the wild type parent; also called 6x CASKIN-SH3 domain mutant
The assay is described as above. The following applies: both partners purified.

T2 sequence (Q8WXE0 284-348 K290Y/H296E/A300E/R319W/Y336L/I341F): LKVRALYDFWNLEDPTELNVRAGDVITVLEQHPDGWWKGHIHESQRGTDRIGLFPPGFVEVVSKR
T1 sequence (Q8WXE0 284-348): as the sequence (Q8WXE0 284-348 K290Y/H296E/A300E/R319W/Y336L/I341F) above, with Y7K, E13H, E17A, W36R, L53Y, F58I counted along it

B1: UBPY peptide YTPMVRENKPP (peptide)
peptide: YTPMVRENKPP
notes: peptide derived from the protein UBPY, corresponding to the UBPY ligand in the STAM2 SH3 domain structure PDB 1UJ0; contains an RxxKP motif; also called Class-III UBPY peptide; STAM2 ligand; source: synthetic peptide (Canpeptide, Montreal; > 90 % purity)
Turning to B1, the Kd in assay [1] is 39000 ± 6000 nM; in assay [2], 460 nM and 220 nM.

In general, Kd refers to the free concentration of one partner at which half of the binding sites on the other are occupied at equilibrium, for simple one-to-one binding. Read a high Kd as a looser complex.
